Assay results: paper PMC4351158 (Structure (London, England : 1993), 2015)

Target: the molecule itself
Assay: crystal structure

B1: wild-type DegS (residues 27-355, without the membrane anchor) (enzyme, E. coli, UniProt P0AEE3 27-355, looked up)
chain: RSLNPLSTPQFDSTDETPASYNLAVRRAAPAVVNVYNRGLNTNSHNQLEIRTLGSGVIMDQRGYIITNKHVINDADQIIVALQDGRVFEALLVGSDSLTDLAVLKINATGGLPTIPINARRVPHIGDVVLAIGNPYNLGQTITQGIISATGRIGLNPTGRQNFLQTDASINHGNSGGALVNSLGELMGINTLSFDKSNDGETPEGIGFAIPFQLATKIMDKLIRDGRVIRGYIGIGGREIAPLHAQGGGIDQLQGIVVNEVSPDGPAANAGIQVNDLIISVDNKPAISALETMDQVAEIRPGSVIPVVVMRDDKQLTLQVTIQEYPATN
B1: binds.
